{"source": "patent US20220251522", "proteins": {"B1": {"name": "PoSP:SUMF1^OPT:His:KDEL (protein)", "chain": "MASSATTKSFLILFFMILATTSSTCAVDSQEAGTGAGAGSLAGSCGCGTPQRPGAHGSSAAAHRYSREANAPGPVPGERQLAHSKMVPIPAGVFTMGTDDPQIKQDGEAPARRVTIDAFYMDAYEVSNTEFEKFVNSTGYLTEAEKFGDSFVFEGMLSEQVKTNIQQAVAAAPWWLPVKGANWRHPEGPDSTILHRPDHPVLHVSWNDAVAYCTWAGKRLPTEAEWEYSCRGGLHNRLFPWGNKLQPKGQHYANIWQGEFPVTNTGEDGFQGTAPVDAFPPNGYGLYNIVGNAWEWTSDWWTVHHSVEETLNPKGPPSGKDRVKKGGSYMCHRSYCYRYRCAARSQNTPDSSASNLGFRCAADRLPTMDHHHHHHKDEL"}}, "target": "T1, PoSP:SGSH^OPT:His", "T1 chain": "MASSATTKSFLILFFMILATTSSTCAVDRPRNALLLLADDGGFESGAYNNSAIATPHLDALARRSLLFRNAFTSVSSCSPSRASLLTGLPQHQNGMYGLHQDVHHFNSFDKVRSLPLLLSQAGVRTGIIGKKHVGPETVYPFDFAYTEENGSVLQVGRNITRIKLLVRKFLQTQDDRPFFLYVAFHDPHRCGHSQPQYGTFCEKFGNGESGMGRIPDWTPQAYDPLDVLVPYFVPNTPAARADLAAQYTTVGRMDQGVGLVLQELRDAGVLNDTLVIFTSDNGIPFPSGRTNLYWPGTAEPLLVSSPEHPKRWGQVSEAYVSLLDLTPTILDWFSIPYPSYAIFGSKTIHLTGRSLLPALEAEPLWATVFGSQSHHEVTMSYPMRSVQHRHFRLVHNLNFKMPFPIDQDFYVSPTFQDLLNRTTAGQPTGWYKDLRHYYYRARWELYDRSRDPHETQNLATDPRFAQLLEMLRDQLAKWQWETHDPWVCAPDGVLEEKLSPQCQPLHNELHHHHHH"}
{"protein": "B1", "values": [{"measurement": "sulfamidase enzymatic activity", "value": "plant-made SGSH (S4 and S12) were enzymatically active only when SUMF1 was co-expressed"}]}
